Assay [1] deals with T1, naturally processed and presented SSX-2 protein on SSX-2+/HLA-A2+ target cells (human). The experiment in a line: cell-based or functional assay.
Assay [2] has as its target T1, naturally processed and presented SSX-2 …. The experiment in a line: cell-based or functional assay. The source holds these as a separate data set.

Like-named read-outs stand apart in the source and are kept apart here.

B1: SSX-2 TCR (HLA-A2 restricted TCR from a natural T cell clone, TRAV14/DV4*01 and TRBV15*02-CB1; expressed from the vector comprising SEQ ID NO: 27) (TCR)
TCR alpha: MSLSSLLKVVTASLWLGPGIAQKITQTQPGMFVQEKEAVTLDCTYDTSDPSYGLFWYKQPSSGEMIFLIYQGSYDQQNATEGRYSLNFQKARKSANLVISASQLGDSAMYFCAMTSGFGNEKLTFGTGTRLTIIPNIQNPDPAVYQLRDSKSSDKSVCLFTDFDSQTNVSQSKDSDVYITDKTVLDMRSMDFKSNSAVAWSNKSDFACANAFNNSIIPEDTFFPSPESSCDVKLVEKSFETDTNLNFQNLSVIGFRILLLKVAGFNLLMTLRLWSS
TCR beta: MGPGLLHWMALCLLGTGHGDAMVIQNPRYQVTQFGKPVTLSCSQTLNHNVMYWYQQKSSQAPKLLFHYYDKDFNNEADTPDNFQSRRPNTSFCFLDIRSPGLGDAAMYLCATSRGQGGQPQHFGDGTRLSILEDLNKVFPPEVAVFEPSEAEISHTQKATLVCLATGFFPDHVELSWWVNGKEVHSGVSTDPQPLKEQPALNDSRYCLSSRLRVSATFWQNPRNHFRCQVQFYGLSENDEWTQDRAKPVTQIVSAEAWGRADCGFTSVSYQQGVLSATILYEILLGKATLYAVLVSALVLMAMVKRKDF
Regarding B1, in assay [1], the “interferon-γ levels (pg/ml), co-culture with 293-A2-SSX2 cells” value came out at 52500 pg/mL; the “interferon-γ levels (pg/ml), co-culture with 624 mel cells” value (“interferon-γ levels … with 624 mel cells” below) amounted to 60200 pg/mL; the “interferon-γ levels (pg/ml), co-culture with 938-A2 mel cells” value worked out at 46100 pg/mL; the “interferon-γ levels (pg/ml), co-culture with 1300 mel cells” value (shortened to “interferon-γ levels … with 1300 mel cells”) was determined as 3160 pg/mL. In assay [1], the “interferon-γ levels (pg/ml), co-culture with COS-A2-SSX2 cells” value is 85900 pg/mL; the “interferon-γ levels (pg/ml), co-culture with K562-A2- Erythroleukemia cells” value turned out to be 12800 pg/mL; the “interferon-γ levels (pg/ml), co-culture with SKOV3 Ovarian cells” value was found to be 11000 pg/mL; the “interferon-γ levels (pg/ml), co-culture with Skmel 37 cells” value (from here on “interferon-γ levels … with Skmel 37 cells”) was 8940 pg/mL. Further, the “interferon-γ levels (pg/ml), co-culture with U251 Glioma cells” value in assay [1] worked out at 22900 pg/mL. Further, in assay [2], the “interferon-γ levels (pg/ml), co-culture with 293-A2-SSX2 cells” value came out at 29800 pg/mL; the “interferon-γ levels … with 624 mel cells” value is 27300 pg/mL; the “interferon-γ levels (pg/ml), co-culture with 938-A2 mel cells” value worked out at 37000 pg/mL; the “interferon-γ levels … with 1300 mel cells” value was determined as 2560 pg/mL. In addition, in assay [2], the “interferon-γ levels (pg/ml), co-culture with COS-A2-SSX2 cells” value stood at 52600 pg/mL; the “interferon-γ levels (pg/ml), co-culture with K562-A2- Erythroleukemia cells” value stood at 12500 pg/mL; the “interferon-γ levels (pg/ml), co-culture with SKOV3 Ovarian cells” value was found to be 2410 pg/mL; the “interferon-γ levels (pg/ml), co-culture with Skmel 37 mel cells” value amounted to 6640 pg/mL. Further, the “interferon-γ levels (pg/ml), co-culture with U251 Glioma cells” value in assay [2] was 16700 pg/mL.

B2: codon-optimized SSX-2 TCR (expressed from the vector comprising SEQ ID NO: 29) (TCR)
TCR alpha: MSLSSLLKVVTASLWLGPGIAQKITQTQPGMFVQEKEAVTLDCTYDTSDPSYGLFWYKQPSSGEMIFLIYQGSYDQQNATEGRYSLNFQKARKSANLVISASQLGDSAMYFCAMTSGFGNEKLTFGTGTRLTIIPNIQNPDPAVYQLRDSKSSDKSVCLFTDFDSQTNVSQSKDSDVYITDKTVLDMRSMDFKSNSAVAWSNKSDFACANAFNNSIIPEDTFFPSPESSCDVKLVEKSFETDTNLNFQNLSVIGFRILLLKVAGFNLLMTLRLWSS
TCR beta: MGPGLLHWMALCLLGTGHGDAMVIQNPRYQVTQFGKPVTLSCSQTLNHNVMYWYQQKSSQAPKLLFHYYDKDFNNEADTPDNFQSRRPNTSFCFLDIRSPGLGDAAMYLCATSRGQGGQPQHFGDGTRLSILEDLNKVFPPEVAVFEPSEAEISHTQKATLVCLATGFFPDHVELSWWVNGKEVHSGVSTDPQPLKEQPALNDSRYCLSSRLRVSATFWQNPRNHFRCQVQFYGLSENDEWTQDRAKPVTQIVSAEAWGRADCGFTSVSYQQGVLSATILYEILLGKATLYAVLVSALVLMAMVKRKDF
Turning to B2, in assay [1], the “interferon-γ levels (pg/ml), co-culture with 293-A2-SSX2 cells” value is 49100 pg/mL; the “interferon-γ levels … with 624 mel cells” value came to 47100 pg/mL; the “interferon-γ levels (pg/ml), co-culture with 938-A2 mel cells” value was 51200 pg/mL; the “interferon-γ levels … with 1300 mel cells” value came to 3050 pg/mL. Further, in assay [1], the “interferon-γ levels (pg/ml), co-culture with COS-A2-SSX2 cells” value was found to be 138000 pg/mL; the “interferon-γ levels (pg/ml), co-culture with K562-A2- Erythroleukemia cells” value is 13600 pg/mL; the “interferon-γ levels (pg/ml), co-culture with SKOV3 Ovarian cells” value is 22500 pg/mL; the “interferon-γ levels … with Skmel 37 cells” value amounted to 11400 pg/mL. In assay [1], the “interferon-γ levels (pg/ml), co-culture with U251 Glioma cells” value came out at 21400 pg/mL. In addition, in assay [2], the “interferon-γ levels (pg/ml), co-culture with 293-A2-SSX2 cells” value was found to be 37500 pg/mL; the “interferon-γ levels … with 624 mel cells” value was 37500 pg/mL; the “interferon-γ levels (pg/ml), co-culture with 938-A2 mel cells” value is 46300 pg/mL; the “interferon-γ levels … with 1300 mel cells” value is 2600 pg/mL. Also, in assay [2], the “interferon-γ levels (pg/ml), co-culture with COS-A2-SSX2 cells” value came out at 64100 pg/mL; the “interferon-γ levels (pg/ml), co-culture with K562-A2- Erythroleukemia cells” value worked out at 21300 pg/mL; the “interferon-γ levels (pg/ml), co-culture with SKOV3 Ovarian cells” value came out at 2530 pg/mL; the “interferon-γ levels (pg/ml), co-culture with Skmel 37 mel cells” value was 8870 pg/mL. In assay [2], the “interferon-γ levels (pg/ml), co-culture with U251 Glioma cells” value was 19200 pg/mL.

B3: codon-optimized human-mouse chimera SSX-2 TCR (codon-optimized SSX-2 TCR including mouse constant region; expressed from the vector comprising SEQ ID NO: 30) (TCR)
TCR alpha: MSLSSLLKVVTASLWLGPGIAQKITQTQPGMFVQEKEAVTLDCTYDTSDPSYGLFWYKQPSSGEMIFLIYQGSYDQQNATEGRYSLNFQKARKSANLVISASQLGDSAMYFCAMTSGFGNEKLTFGTGTRLTIIPNDIQNPEPAVYQLKDPRSQDSTLCLFTDFDSQINVPKTMESGTFITDKTVLDMKAMDSKSNGAIAWSNQTSFTCQDIFKETNATYPSSDVPCDATLTEKSFETDMNLNFQNLSVMGLRILLLKVAGFNLLMTLRLWSS
TCR beta: MGPGLLHWMALCLLGTGHGDAMVIQNPRYQVTQFGKPVTLSCSQTLNHNVMYWYQQKSSQAPKLLFHYYDKDFNNEADTPDNFQSRRPNTSFCFLDIRSPGLGDAAMYLCATSRGQGGQPQHFGDGTRLSILEDLRNVTPPKVSLFEPSKAEIANKQKATLVCLARGFFPDHVELSWWVNGKEVHSGVSTDPQAYKESNYSYCLSSRLRVSATFWHNPRNHFRCQVQFHGLSEEDKWPEGSPKPVTQNISAEAWGRACGITSSYQQGVLSATILYEILLGKATLYAVLVSTLVVMAMVKRKNS
For B3, in assay [1], the “interferon-γ levels (pg/ml), co-culture with 293-A2-SSX2 cells” value came out at 47300 pg/mL; the “interferon-γ levels … with 624 mel cells” value worked out at 57700 pg/mL; the “interferon-γ levels (pg/ml), co-culture with 938-A2 mel cells” value came out at 40000 pg/mL; the “interferon-γ levels … with 1300 mel cells” value worked out at 3460 pg/mL. In assay [1], the “interferon-γ levels (pg/ml), co-culture with COS-A2-SSX2 cells” value was determined as 164000 pg/mL; the “interferon-γ levels (pg/ml), co-culture with K562-A2- Erythroleukemia cells” value worked out at 13600 pg/mL; the “interferon-γ levels (pg/ml), co-culture with SKOV3 Ovarian cells” value came to 9860 pg/mL; the “interferon-γ levels … with Skmel 37 cells” value stood at 10600 pg/mL. The “interferon-γ levels (pg/ml), co-culture with U251 Glioma cells” value in assay [1] was 20000 pg/mL. For the same molecule, in assay [2], the “interferon-γ levels (pg/ml), co-culture with 293-A2-SSX2 cells” value was determined as 37300 pg/mL; the “interferon-γ levels … with 624 mel cells” value was found to be 47000 pg/mL; the “interferon-γ levels (pg/ml), co-culture with 938-A2 mel cells” value was 51100 pg/mL; the “interferon-γ levels … with 1300 mel cells” value came out at 2720 pg/mL. Also, in assay [2], the “interferon-γ levels (pg/ml), co-culture with COS-A2-SSX2 cells” value stood at 56900 pg/mL; the “interferon-γ levels (pg/ml), co-culture with K562-A2- Erythroleukemia cells” value is 17400 pg/mL; the “interferon-γ levels (pg/ml), co-culture with SKOV3 Ovarian cells” value turned out to be 2220 pg/mL; the “interferon-γ levels (pg/ml), co-culture with Skmel 37 mel cells” value is 10400 pg/mL. The “interferon-γ levels (pg/ml), co-culture with U251 Glioma cells” value in assay [2] was 19000 pg/mL.

The record behind these values is US20160279196A1 (US Dept. of Health and Human Services, published 2016).
